Measured values published in patent US20120244132A1 (published 2012).

Molecular target: T1, latent membrane protein 2 (LMP-2) from the Epstein Barr Virus (EBV) peptide on HLA-A*02:01 (human)
T1 peptide: CLGGLLTMV
Test: multimer staining

B1: EBVa14-p2A-Vb7.7 (LMP-2-specific TCR of SEQ ID No. 8) (TCR, V domains shown)
Valpha: AQKITQTQPGMFVQEKEAVTLDCTYDTSDQSYGLFWYKQPSSGEMIFLIYQGSYDEQNATEGRYSLNFQKARKSANLVISASQLGDSAMYFCAMREGSGSARQLTFGSGTQLTVLP
Vbeta: GAGVSQSPRYKVTKRGQDVTLRCDPISSHATLYWYQQALGQGPEFLTYFNYEAQPDKSGLPSDRFSAERPEGSISTLTIQRTEQRDSAMYRCASSLGPAGIQETQYFGPGTRLLVL
B1: recognises.
